We go through 9 substances from paper PMC4140278.

For assay [1], the target named is arrestin-3 (β-arrestin-2) (UniProt P32121). Put plainly: kinetic BRET, arrestin-3-Rluc / FFA4-eYFP. Particulars: reference: wild type; sites T347,S350,S357.
Assay [2] shares this target. Put plainly: BRET, arrestin-3-Rluc / FLAG-FFA4-eYFP, 5 min. Particulars: for percent of reference: reference: wild type. On the technique in general: Bioluminescence resonance energy transfer reports proximity on the nanometre scale.

Turning to “FFA4 (GPR120) (from UniProt Q5NUL3) TSS/AAA”, the “other: t½ of association” value in assay [1] is given as “weaker; reference 46 ± 6”. In assay [2] (sites T347,S350,S357), this substance showed a percent of reference of 77%. For “FFA4 (GPR120) (from UniProt Q5NUL3) TTSS/AAAA”, the “other: Emax, % of wild type” value in assay [2] (reference: TSS/AAA, sites T349) is listed as “same; reference 77 ± 2”. The same substance showed a percent of reference in assay [2] (sites T347,T349,S350,S357) of 84%. Take “FFA4 (GPR120) (from UniProt Q5NUL3) TSSS/AAAA”: the “other: Emax, % of wild type” value in assay [2] (reference: TSS/AAA, sites S360) was “weaker; reference 77 ± 2”. Also, the percent of reference in assay [2] (sites T347,S350,S357,S360) was found to be 38%. For “FFA4 (GPR120) (from UniProt Q5NUL3) TTSSS/AAAAA-EDD/AAA”, the “other: Emax, % of wild type” value in assay [2] (reference: EDD/AAA, sites T347,T349,S350,S357,S360) is reported as “weaker; reference 69 ± 7”. As to “FFA4 (GPR120) (from UniProt Q5NUL3) TTSSS/AAAAA”, the “other: Emax, % of wild type” value in assay [2] (reference: TSS/AAA, sites T349,S360) is reported as “weaker; reference 77 ± 2”; in assay [2] (reference: TSSS/AAAA, sites T349), “same; reference 38 ± 2”; in assay [2] (reference: TTSS/AAAA, sites S360) it was “weaker; reference 84 ± 7”. In assay [2] (sites T347,T349,S350,S357,S360), this substance yielded a percent of reference of 42%. Consider “FFA4 (GPR120) (from UniProt Q5NUL3) S360A”, for which, in assay [2] (sites S360), the percent of reference is 85%. In assay [2] (reference: DD/AA, sites T347,T349,S350,S357,S360), “FFA4 (GPR120) (from UniProt Q5NUL3) TTSSS/AAAAA-DD/AA” registered an other: Emax, % of wild type of 21%. Regarding “FFA4 (GPR120) (from UniProt Q5NUL3) TUG-891 10 µM, 5 min”, the “other: milli-BRET units” value in assay [2] (reference: vehicle, sites T347,T349,S350,S357,S360) is “stronger; reference 63 ± 6”. In turn, “FFA4 (GPR120) (from UniProt Q5NUL3) TSS/AAA-DD/AA” had an other: Emax, % of wild type in assay [2] (reference: DD/AA, sites T347,S350,S357) of 40%.
